Experimental data published in patent publication US20180155451A1 (published 2018).

Target: T1, FcγRIIa H (human, UniProt P12318 34-217)
T1 construct: extracellular domain; also called FcgRIIa H type; 2aH; not shown: His tag at the C terminus
T1 sequence (looked up): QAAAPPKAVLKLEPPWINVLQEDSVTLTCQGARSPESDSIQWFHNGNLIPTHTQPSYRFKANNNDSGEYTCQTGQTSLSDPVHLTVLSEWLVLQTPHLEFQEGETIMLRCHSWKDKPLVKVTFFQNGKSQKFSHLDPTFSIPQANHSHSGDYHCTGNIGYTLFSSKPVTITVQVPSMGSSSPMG
Assay: SPR Biacore, relative binding

B1: GpH7-B3 variant S324_02A/GpL16-k0 (antibody, human IgG1, kappa)
heavy: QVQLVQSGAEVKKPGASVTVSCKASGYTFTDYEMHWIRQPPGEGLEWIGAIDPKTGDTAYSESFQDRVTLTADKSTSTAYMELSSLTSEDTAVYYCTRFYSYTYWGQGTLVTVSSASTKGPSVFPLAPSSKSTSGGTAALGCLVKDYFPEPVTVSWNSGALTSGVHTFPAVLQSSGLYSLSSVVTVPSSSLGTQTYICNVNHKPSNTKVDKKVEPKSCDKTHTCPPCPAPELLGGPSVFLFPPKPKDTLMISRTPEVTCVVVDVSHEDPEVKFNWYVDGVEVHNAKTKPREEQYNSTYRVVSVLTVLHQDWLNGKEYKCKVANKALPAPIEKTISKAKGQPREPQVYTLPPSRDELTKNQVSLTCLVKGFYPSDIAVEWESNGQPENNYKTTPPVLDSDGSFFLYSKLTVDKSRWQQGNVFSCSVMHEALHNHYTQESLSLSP
light: DIVMTQSPLSLPVTPGEPASISCQASESLVHSNRNTYLHWYLQKPGQSPQLLIYKVSNRFSGVPDRFSGSGSGTDFTLKISRVEAEDVGVYYCSQNTHVPPTFGQGTKVEIERTVAAPSVFIFPPSDEQLKSGTASVVCLLNNFYPREAKVQWKVDNALQSGNSQESVTEQDSKDSTYSLSSTLTLSKADYEKHKVYACEVTHQGLSSPVTKSFNRGEC
notes: also called Ho Ab S324_02A
With B1 the Ho/Con_2aH was 102 % of GpH7-B3/GpL16-k0 (=100).

B2: GpH7-A5/GpH7-B3 variant I332_02A/GpL16-k0 (antibody, human IgG1, kappa)
heavy 1: not shown
heavy 2: not shown
light: DIVMTQSPLSLPVTPGEPASISCQASESLVHSNRNTYLHWYLQKPGQSPQLLIYKVSNRFSGVPDRFSGSGSGTDFTLKISRVEAEDVGVYYCSQNTHVPPTFGQGTKVEIERTVAAPSVFIFPPSDEQLKSGTASVVCLLNNFYPREAKVQWKVDNALQSGNSQESVTEQDSKDSTYSLSSTLTLSKADYEKHKVYACEVTHQGLSSPVTKSFNRGEC
notes: also called He Ab I332_02A
For B2, the He/Con_2aH was 111 % of GpH7-A5/GpH7-B3/GpL16-k0 (=100).

B3: GpH7-B3 variant S324_09D/GpL16-k0 (antibody, human IgG1, kappa)
heavy: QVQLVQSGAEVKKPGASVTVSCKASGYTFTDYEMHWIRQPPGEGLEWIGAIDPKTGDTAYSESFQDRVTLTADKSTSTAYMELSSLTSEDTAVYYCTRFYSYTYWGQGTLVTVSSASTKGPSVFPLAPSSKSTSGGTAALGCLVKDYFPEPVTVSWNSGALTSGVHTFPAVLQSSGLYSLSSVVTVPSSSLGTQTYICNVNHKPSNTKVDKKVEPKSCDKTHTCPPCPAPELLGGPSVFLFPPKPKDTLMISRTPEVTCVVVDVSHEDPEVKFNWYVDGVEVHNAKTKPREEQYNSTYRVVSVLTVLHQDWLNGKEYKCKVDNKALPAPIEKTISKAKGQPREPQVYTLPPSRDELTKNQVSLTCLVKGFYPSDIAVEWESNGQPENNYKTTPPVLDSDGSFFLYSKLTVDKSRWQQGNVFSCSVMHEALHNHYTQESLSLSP
light: DIVMTQSPLSLPVTPGEPASISCQASESLVHSNRNTYLHWYLQKPGQSPQLLIYKVSNRFSGVPDRFSGSGSGTDFTLKISRVEAEDVGVYYCSQNTHVPPTFGQGTKVEIERTVAAPSVFIFPPSDEQLKSGTASVVCLLNNFYPREAKVQWKVDNALQSGNSQESVTEQDSKDSTYSLSSTLTLSKADYEKHKVYACEVTHQGLSSPVTKSFNRGEC
notes: also called Ho Ab S324_09D
For B3, the Ho/Con_2aH was 113 % of GpH7-B3/GpL16-k0 (=100).

B4: GpH7-B3 variant T335_10E/GpL16-k0 (antibody, human IgG1, kappa)
heavy: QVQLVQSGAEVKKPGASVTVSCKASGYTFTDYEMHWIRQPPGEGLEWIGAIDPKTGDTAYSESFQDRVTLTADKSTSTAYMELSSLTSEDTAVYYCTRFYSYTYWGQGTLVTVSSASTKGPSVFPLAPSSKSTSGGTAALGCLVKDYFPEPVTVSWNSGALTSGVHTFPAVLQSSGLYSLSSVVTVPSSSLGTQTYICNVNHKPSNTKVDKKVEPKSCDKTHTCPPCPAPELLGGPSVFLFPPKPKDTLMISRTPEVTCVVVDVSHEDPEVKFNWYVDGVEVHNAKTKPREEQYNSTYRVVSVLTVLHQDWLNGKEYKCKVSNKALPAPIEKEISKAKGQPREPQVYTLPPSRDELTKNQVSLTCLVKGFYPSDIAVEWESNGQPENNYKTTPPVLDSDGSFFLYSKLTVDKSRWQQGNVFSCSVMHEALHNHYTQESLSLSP
light: DIVMTQSPLSLPVTPGEPASISCQASESLVHSNRNTYLHWYLQKPGQSPQLLIYKVSNRFSGVPDRFSGSGSGTDFTLKISRVEAEDVGVYYCSQNTHVPPTFGQGTKVEIERTVAAPSVFIFPPSDEQLKSGTASVVCLLNNFYPREAKVQWKVDNALQSGNSQESVTEQDSKDSTYSLSSTLTLSKADYEKHKVYACEVTHQGLSSPVTKSFNRGEC
notes: also called Ho Ab T335_10E
In the case of B4, the Ho/Con_2aH is reported as 105 % of GpH7-B3/GpL16-k0 (=100).

B5: GpH7-A5/GpH7-B3 variant H268_09D/GpL16-k0 (antibody, human IgG1, kappa)
heavy 1: not shown
heavy 2: not shown
light: DIVMTQSPLSLPVTPGEPASISCQASESLVHSNRNTYLHWYLQKPGQSPQLLIYKVSNRFSGVPDRFSGSGSGTDFTLKISRVEAEDVGVYYCSQNTHVPPTFGQGTKVEIERTVAAPSVFIFPPSDEQLKSGTASVVCLLNNFYPREAKVQWKVDNALQSGNSQESVTEQDSKDSTYSLSSTLTLSKADYEKHKVYACEVTHQGLSSPVTKSFNRGEC
notes: also called He Ab H268_09D
With B5 the He/Con_2aH was 133 % of GpH7-A5/GpH7-B3/GpL16-k0 (=100).

B6: GpH7-A5/GpH7-B3 variant G236_07I/GpL16-k0 (antibody, human IgG1, kappa)
heavy 1: not shown
heavy 2: not shown
light: DIVMTQSPLSLPVTPGEPASISCQASESLVHSNRNTYLHWYLQKPGQSPQLLIYKVSNRFSGVPDRFSGSGSGTDFTLKISRVEAEDVGVYYCSQNTHVPPTFGQGTKVEIERTVAAPSVFIFPPSDEQLKSGTASVVCLLNNFYPREAKVQWKVDNALQSGNSQESVTEQDSKDSTYSLSSTLTLSKADYEKHKVYACEVTHQGLSSPVTKSFNRGEC
notes: also called He Ab G236_07I
With B6 the He/Con_2aH was 115 % of GpH7-A5/GpH7-B3/GpL16-k0 (=100).

B7: GpH7-B3 variant S337_16H/GpL16-k0 (antibody, human IgG1, kappa)
heavy: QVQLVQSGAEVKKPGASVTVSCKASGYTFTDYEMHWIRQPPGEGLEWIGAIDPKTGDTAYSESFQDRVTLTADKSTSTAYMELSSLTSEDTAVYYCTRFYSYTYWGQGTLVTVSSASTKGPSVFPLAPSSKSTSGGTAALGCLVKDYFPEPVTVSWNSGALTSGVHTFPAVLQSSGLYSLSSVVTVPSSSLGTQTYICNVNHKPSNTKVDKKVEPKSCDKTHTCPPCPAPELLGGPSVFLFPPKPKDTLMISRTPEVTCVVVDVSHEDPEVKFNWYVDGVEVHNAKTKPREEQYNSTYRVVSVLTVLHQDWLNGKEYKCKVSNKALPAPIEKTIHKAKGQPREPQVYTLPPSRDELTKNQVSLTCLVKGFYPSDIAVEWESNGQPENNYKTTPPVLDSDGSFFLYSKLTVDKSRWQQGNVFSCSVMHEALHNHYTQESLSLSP
light: DIVMTQSPLSLPVTPGEPASISCQASESLVHSNRNTYLHWYLQKPGQSPQLLIYKVSNRFSGVPDRFSGSGSGTDFTLKISRVEAEDVGVYYCSQNTHVPPTFGQGTKVEIERTVAAPSVFIFPPSDEQLKSGTASVVCLLNNFYPREAKVQWKVDNALQSGNSQESVTEQDSKDSTYSLSSTLTLSKADYEKHKVYACEVTHQGLSSPVTKSFNRGEC
notes: also called Ho Ab S337_16H
B7 was tested, and the Ho/Con_2aH was 102 % of GpH7-B3/GpL16-k0 (=100).

B8: GpH7-B3 variant S337_10E/GpL16-k0 (antibody, human IgG1, kappa)
heavy: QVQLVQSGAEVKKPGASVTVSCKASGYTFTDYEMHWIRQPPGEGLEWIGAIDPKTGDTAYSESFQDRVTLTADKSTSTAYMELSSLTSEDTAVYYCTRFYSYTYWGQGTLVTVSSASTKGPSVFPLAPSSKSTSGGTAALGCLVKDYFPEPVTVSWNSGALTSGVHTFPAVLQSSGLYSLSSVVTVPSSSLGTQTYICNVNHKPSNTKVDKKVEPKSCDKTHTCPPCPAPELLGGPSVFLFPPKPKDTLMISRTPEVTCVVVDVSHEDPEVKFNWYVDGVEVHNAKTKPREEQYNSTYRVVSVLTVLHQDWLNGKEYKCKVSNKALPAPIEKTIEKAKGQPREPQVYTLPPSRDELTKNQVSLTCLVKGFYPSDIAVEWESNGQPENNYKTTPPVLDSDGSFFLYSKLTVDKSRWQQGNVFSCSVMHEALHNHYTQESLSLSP
light: DIVMTQSPLSLPVTPGEPASISCQASESLVHSNRNTYLHWYLQKPGQSPQLLIYKVSNRFSGVPDRFSGSGSGTDFTLKISRVEAEDVGVYYCSQNTHVPPTFGQGTKVEIERTVAAPSVFIFPPSDEQLKSGTASVVCLLNNFYPREAKVQWKVDNALQSGNSQESVTEQDSKDSTYSLSSTLTLSKADYEKHKVYACEVTHQGLSSPVTKSFNRGEC
notes: also called Ho Ab S337_10E
B8 was tested, and the Ho/Con_2aH was 101 % of GpH7-B3/GpL16-k0 (=100).

B9: GpH7-B3 variant S324_06M/GpL16-k0 (antibody, human IgG1, kappa)
heavy: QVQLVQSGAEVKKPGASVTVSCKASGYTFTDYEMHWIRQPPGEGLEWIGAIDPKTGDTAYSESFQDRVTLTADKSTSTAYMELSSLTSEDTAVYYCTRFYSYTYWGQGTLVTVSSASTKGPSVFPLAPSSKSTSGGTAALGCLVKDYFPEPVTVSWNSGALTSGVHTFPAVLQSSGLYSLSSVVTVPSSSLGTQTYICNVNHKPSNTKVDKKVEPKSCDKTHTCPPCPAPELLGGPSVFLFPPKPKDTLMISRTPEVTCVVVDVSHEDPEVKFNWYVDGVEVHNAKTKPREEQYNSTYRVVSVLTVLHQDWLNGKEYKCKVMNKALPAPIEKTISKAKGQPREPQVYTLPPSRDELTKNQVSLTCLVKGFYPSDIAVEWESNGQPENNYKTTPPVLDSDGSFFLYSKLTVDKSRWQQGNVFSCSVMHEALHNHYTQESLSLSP
light: DIVMTQSPLSLPVTPGEPASISCQASESLVHSNRNTYLHWYLQKPGQSPQLLIYKVSNRFSGVPDRFSGSGSGTDFTLKISRVEAEDVGVYYCSQNTHVPPTFGQGTKVEIERTVAAPSVFIFPPSDEQLKSGTASVVCLLNNFYPREAKVQWKVDNALQSGNSQESVTEQDSKDSTYSLSSTLTLSKADYEKHKVYACEVTHQGLSSPVTKSFNRGEC
notes: also called Ho Ab S324_06M
For B9, the Ho/Con_2aH was 123 % of GpH7-B3/GpL16-k0 (=100).

B10: GpH7-B3 variant T335_13S/GpL16-k0 (antibody, human IgG1, kappa)
heavy: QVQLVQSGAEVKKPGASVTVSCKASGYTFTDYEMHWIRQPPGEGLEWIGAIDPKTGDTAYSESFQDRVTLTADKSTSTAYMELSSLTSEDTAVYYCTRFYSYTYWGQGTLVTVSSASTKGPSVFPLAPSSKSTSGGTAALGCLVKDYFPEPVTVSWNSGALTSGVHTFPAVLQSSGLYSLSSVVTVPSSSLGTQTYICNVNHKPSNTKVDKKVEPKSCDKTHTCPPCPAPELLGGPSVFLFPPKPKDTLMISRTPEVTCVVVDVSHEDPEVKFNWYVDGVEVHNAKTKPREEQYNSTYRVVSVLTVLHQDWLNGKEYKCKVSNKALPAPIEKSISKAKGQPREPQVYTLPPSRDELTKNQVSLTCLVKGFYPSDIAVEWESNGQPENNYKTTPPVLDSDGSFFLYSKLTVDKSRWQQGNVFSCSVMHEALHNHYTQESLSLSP
light: DIVMTQSPLSLPVTPGEPASISCQASESLVHSNRNTYLHWYLQKPGQSPQLLIYKVSNRFSGVPDRFSGSGSGTDFTLKISRVEAEDVGVYYCSQNTHVPPTFGQGTKVEIERTVAAPSVFIFPPSDEQLKSGTASVVCLLNNFYPREAKVQWKVDNALQSGNSQESVTEQDSKDSTYSLSSTLTLSKADYEKHKVYACEVTHQGLSSPVTKSFNRGEC
notes: also called Ho Ab T335_13S
With B10 the Ho/Con_2aH was 101 % of GpH7-B3/GpL16-k0 (=100).

B11: GpH7-B3 variant T335_15Y/GpL16-k0 (antibody, human IgG1, kappa)
heavy: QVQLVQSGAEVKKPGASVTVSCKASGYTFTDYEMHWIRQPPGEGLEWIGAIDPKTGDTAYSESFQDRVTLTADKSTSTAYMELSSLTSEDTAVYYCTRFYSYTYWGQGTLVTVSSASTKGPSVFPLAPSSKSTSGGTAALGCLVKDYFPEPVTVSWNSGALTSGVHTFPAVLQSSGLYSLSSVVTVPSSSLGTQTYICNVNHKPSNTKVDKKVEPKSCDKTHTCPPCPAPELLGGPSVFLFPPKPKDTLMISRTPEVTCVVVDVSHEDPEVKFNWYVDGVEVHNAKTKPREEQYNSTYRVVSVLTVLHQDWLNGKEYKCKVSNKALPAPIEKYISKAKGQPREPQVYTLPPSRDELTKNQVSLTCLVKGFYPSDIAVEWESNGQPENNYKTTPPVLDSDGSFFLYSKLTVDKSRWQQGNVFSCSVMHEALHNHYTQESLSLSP
light: DIVMTQSPLSLPVTPGEPASISCQASESLVHSNRNTYLHWYLQKPGQSPQLLIYKVSNRFSGVPDRFSGSGSGTDFTLKISRVEAEDVGVYYCSQNTHVPPTFGQGTKVEIERTVAAPSVFIFPPSDEQLKSGTASVVCLLNNFYPREAKVQWKVDNALQSGNSQESVTEQDSKDSTYSLSSTLTLSKADYEKHKVYACEVTHQGLSSPVTKSFNRGEC
notes: also called Ho Ab T335_15Y
For B11, the Ho/Con_2aH was 102 % of GpH7-B3/GpL16-k0 (=100).
